Earlier results, collected in PMC3565385 (Journal of computer-aided molecular design, 2012).

Tested on: PTH1R
Conditions: ΔΔG = RT ln(Ki mutant/Ki wild-type) from published alanine scanning

B1: PTH R20A: parathyroid hormone with Arg20 replaced by alanine (peptide, UniProt P01270 32-115, looked up, variant R20A)
Parathyroid hormone: SVSEIQLMHNLGKHLNSMEAVEWLRKKLQDVHNFVALGAPLAPRDAGSQRPRKKEDNVLVESHEKSLGEADKADVNVLTKAKSQ
modifications: Parathyroid hormone
experimental ΔΔG: 12.4 kJ/mol
